According to publication PMC7935953, “Insights on autophagosome–lysosome tethering from structural and biochemical characterization of human autophagy factor EPG5” (Communications Biology, 2021):

Assays:
Experiment in all cases: pull-down; GST pull-down: purified GST-LC3A/B/C or GST-GABARAP/L1/L2 bait (200–240 µg) on glutathione resin, purified His-FLAG-hEPG5 or mutant (25–30 µg) as prey; 50 mM Tris pH 8.0, 150 mM NaCl, 5% glycerol, 0.01% Tween20, 0.5 mM DTT, 4 °C; anti-FLAG fluorescence western blot
GST-GABARAP (human) = GST-GABARAP (human) (UniProt O95166)
GST-GABARAPL1 (human) = GST-GABARAPL1 (human) (UniProt Q9H0R8)
GST-GABARAPL2 (human) = GST-GABARAPL2 (human) (UniProt P60520)
Chain of GST-GABARAPL2 (human) (P60520 whole entry): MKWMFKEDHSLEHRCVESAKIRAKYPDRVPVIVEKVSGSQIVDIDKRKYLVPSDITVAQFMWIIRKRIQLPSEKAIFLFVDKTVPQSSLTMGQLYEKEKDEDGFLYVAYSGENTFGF

Chain of GST-GABARAP (human) (O95166 whole entry): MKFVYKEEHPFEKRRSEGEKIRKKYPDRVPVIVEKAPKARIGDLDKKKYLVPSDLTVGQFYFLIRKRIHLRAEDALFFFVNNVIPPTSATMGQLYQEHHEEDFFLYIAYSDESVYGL
Chain of GST-GABARAPL1 (human) (Q9H0R8 whole entry): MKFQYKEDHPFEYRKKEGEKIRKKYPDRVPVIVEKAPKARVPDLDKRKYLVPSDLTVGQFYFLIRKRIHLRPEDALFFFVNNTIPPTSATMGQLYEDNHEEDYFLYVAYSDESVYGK

- fold more hEPG5 precipitated than by the LC3 subfamily (GST-GABARAP (human)): 2.5 times
- fold more hEPG5 precipitated than by the LC3 subfamily (GST-GABARAPL1 (human)): 2.5 times
- fold more hEPG5 precipitated than by the LC3 subfamily (GST-GABARAPL2 (human)): 2.5 times
Substance: His-FLAG-hEPG5 (human EPG5, full length, wild type), Q9HCE0 1-2579
